From paper PMC8614738 (2021)

Molecular target: oligomeric EF-Tu (^OligoEF-Tu), unfolded (UniProt P0CE47 1-394)
Experiment: ITC; 20 °C

oligomeric EF-Tu (^OligoEF-Tu), unfolded, sequence (P0CE47 whole entry): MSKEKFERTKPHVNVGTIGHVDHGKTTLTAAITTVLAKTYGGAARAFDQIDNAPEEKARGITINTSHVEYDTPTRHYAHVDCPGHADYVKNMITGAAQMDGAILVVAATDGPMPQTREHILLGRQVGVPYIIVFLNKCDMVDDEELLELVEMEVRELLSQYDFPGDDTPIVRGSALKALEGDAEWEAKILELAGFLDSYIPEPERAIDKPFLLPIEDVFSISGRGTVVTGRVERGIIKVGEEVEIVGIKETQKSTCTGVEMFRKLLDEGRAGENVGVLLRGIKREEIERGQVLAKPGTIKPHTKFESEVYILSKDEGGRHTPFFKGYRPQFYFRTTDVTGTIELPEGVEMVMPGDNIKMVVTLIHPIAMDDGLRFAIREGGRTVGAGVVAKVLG

Kd: 1860 nM
B1: trigger factor (TF) (natural protein)
chain: MQVSVETTQGLGRRVTITIAADSIETAVKSELVNVAKKVRIDGFRKGKVPMNIVAQRYGASVRQDVLGDLMSRNFIDAIIKEKINPAGAPTYVPGEYKLGEDFTYSVEFEVYPEVELQGLEAIEVEKPIVEVTDADVDGMLDTLRKQQATWKEKDGAVEAEDRVTIDFTGSVDGEEFEGGKASDFVLAMGQGRMIPGFEDGIKGHKAGEEFTIDVTFPEEYHAENLKGKAAKFAINLKKVEERELPELTAEFIKRFGVEDGSVEGLRAEVRKNMERELKSAIRNRVKSQAIEGLVKANDIDVPAALIDSEIDVLRRQAAQRFGGNEKQALELPRELFEEQAKRRVVVGLLLGEVIRTNELKADEERVKGLIEEMASAYEDPKEVIEFYSKNKELMDNMRNVALEEQAVEAVLAKAKVTEKETTFNELMNQQA
